Where two headings read alike, the source gives them in different places.
Columns and labels:
[1] = test system: Kv2.1 R293S/R294S/R300S (R-1S/R0S/R2S); assay: Omega currents (Iω) of Kv2.1 R-1S/R0S/R2S in Xenopus oocytes, two electrode voltage-clamp; assay type: cell-based, human
Excerpt: The coding cDNAs of KV2.1 “wild-type” (hereinafter WT) base construct (hKv2.1-m7-c3 is human Kv2.1, residues 1-858, mutated to confer AgTx2 sensitivity and to remove extracellular cysteine residues) was synthesized (Entelchon GmbH) and cloned into the high expression vector pBSTA.
Mutations Kv2.1 R294N (hereinafter R0N), Kv2.1 R300S (hereinafter R2S), Kv2.1 R294C/R300S (hereinafter R0C/R2S), Kv2.1 R293S/R294S (hereinafter R-1S/R0S), Kv2.1 R293S/R294C (hereinafter R-1S/R0C), Kv2.1 R293S/R294S/R300S (hereinafter R-1S/R0S/R2S), Kv2.1 R293S/R294C/R300S (hereinafter R-1S/R0C/R2S) were introduced using the QuikChange® Lightning Site-Directed Mutagenesis Kit (Stratagene) with mutagenic primers according to the manufacturer's instructions. All constructs were checked by restriction site mapping and sequencing.
Transcripted cRNA was produced using the mMessage mMachine kit (Ambion Inc.). Two to four days past injection of cRNA into stage V-VI Xenopus oocytes (NASCO) potassium currents through the alpha pore (Iα) were recorded with the two electrode voltage-clamp technique making use of a TURBO TEC-05× amplifier (npi electronic GmbH). Currents were filtered at 10 kHz and sampled at 20 kHz. The bath solution contained (in mM): NaCl 96, KCl 2, CaCl2 1, MgCl2 1 and HEPES 5 (pH 7.5). Voltage-recording and current-injecting microelectrodes were filled with 3 M KCl and pulled to have resistances between 0.2 and 1 MΩ (see Stork et al., 2007). The pClamp software package v.10.1 (Molecular Devices, Inc.) was used for data acquisition and analysis.
Recording of alpha currents (Iα): Pulses of 100 ms were applied from ˜60 to +60 mV in 10 mV steps at 1 Hz from a holding potential of ˜80 mV to the Kv2.1 channel constructs to measure alpha currents (Iα). Passive leak currents were subtracted online using a P/4 procedure: pClamp software generates a series of scaled-down replica sweeps of the main stimulus waveform. […] The cell's response to the subsweeps is used to calculate the degree of passive cellular current leak. This is then subtracted from acquired data on the associated input signal. Recording of omega currents (Iω): Pulses of 10 ms were applied from a holding potential of ˜80 to ˜300 mV in 20 mV steps at 0.3 Hz to the Kv2.1 channel constructs. Iω were recorded without leak subtraction.
AgTx2 (Sigma Aldrich) was reconstituted according to manufacturer's instructions with 10 mM Tris, pH 7.5, containing 100 mM sodium chloride, 0.1% bovine serum albumin, and 1 mM EDTA. LaCl3 was from Sigma Aldrich; MTSEA, MTSES and MTSET were from Biotium.
La^3+, AgTx2, MTSEA, MTSES and MTSET and were applied to Xenopus oocytes by means of a fast perfusion technique (ScreeningTool as described by Baburin et al., 2006). Origin software v.7.0 (OriginLab Corp.) was employed for data analysis. Inhibition of inward currents was defined as 1−Iω,drug/Iω,control, where Iω,drug is the current response in the presence of a given concentration of lanthanum (La^3+) and Iω, control is the control current through the omega pore. The concentration-inhibition curve was fitted using the Hill equation: Iω,drug/Iω,control=A+[…] where IC50 is the concentration at which Iω inhibition is half-maximal, C is the applied La^3+ concentration, A is the fraction of Iω current that blocked and nH is the Hill coefficient. Data are given as mean±SE (n=number of experiments).

Kv1.3 = Kv1.3 (Homo sapiens, UniProt P22001); conditions: cited from earlier work
Sequence of Kv1.3 (P22001 whole entry): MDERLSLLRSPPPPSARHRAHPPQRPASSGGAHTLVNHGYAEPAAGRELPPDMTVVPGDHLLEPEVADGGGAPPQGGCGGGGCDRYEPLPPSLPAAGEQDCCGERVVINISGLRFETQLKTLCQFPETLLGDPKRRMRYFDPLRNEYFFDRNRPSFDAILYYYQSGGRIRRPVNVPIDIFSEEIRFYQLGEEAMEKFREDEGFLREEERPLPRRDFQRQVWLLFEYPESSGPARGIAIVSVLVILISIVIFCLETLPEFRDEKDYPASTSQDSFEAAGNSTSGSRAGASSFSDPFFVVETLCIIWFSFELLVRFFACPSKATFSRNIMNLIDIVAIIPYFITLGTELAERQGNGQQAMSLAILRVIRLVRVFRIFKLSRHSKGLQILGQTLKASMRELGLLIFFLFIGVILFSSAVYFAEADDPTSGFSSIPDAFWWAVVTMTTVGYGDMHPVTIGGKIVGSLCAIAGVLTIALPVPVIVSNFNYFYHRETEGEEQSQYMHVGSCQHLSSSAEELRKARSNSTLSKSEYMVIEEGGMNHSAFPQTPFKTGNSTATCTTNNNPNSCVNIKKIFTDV

[2] = target: T1, Kv2.1 T359S K360G A366D S367A I383M Y384T K386V (Homo sapiens, UniProt Q14721, A366D/I383M/K360G/K386V/S367A/T359S/Y384T); conditions: Table 5; read-out: IC50, channel Kv2.1 T359S K360G A366D S367A I383M Y384T K386V; cited from earlier work
T1 sequence (Q14721 1-858 T359S/K360G/A366D/S367A/I383M/Y384T/K386V): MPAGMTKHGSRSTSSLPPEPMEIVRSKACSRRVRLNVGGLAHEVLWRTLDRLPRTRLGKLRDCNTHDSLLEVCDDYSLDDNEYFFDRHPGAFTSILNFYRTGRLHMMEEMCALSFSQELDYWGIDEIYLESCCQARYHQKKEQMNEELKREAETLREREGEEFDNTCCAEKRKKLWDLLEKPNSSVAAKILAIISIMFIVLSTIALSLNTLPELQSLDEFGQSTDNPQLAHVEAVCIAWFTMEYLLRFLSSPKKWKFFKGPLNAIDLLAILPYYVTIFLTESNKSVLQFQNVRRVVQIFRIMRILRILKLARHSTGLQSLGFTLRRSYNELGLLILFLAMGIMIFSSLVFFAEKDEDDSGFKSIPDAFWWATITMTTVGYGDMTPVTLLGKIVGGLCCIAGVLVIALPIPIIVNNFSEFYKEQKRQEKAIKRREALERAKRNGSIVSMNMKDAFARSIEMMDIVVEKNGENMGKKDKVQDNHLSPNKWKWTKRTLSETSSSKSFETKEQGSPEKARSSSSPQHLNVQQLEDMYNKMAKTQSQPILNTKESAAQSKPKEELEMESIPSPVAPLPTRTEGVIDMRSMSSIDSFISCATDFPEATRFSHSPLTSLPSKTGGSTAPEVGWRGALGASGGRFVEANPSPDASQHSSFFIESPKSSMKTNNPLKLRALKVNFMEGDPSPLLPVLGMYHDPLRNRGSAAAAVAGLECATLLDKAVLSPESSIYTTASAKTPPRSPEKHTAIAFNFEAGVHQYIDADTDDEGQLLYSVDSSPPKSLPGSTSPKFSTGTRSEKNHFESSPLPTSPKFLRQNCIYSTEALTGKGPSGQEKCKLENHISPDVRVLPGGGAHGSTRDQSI

Substance	Effect on omega current (Iω) ([1]; 100 nM GxTx-1E, 5 minutes application)	IC50, channel Kv1.3 (Kv1.3; Table 5, result in words)	IC50 [2]	Inhibition of inward currents at negative potentials (Iω) ([1]; 10 nM AgTx2, after 5 minutes)	IC50 (Kv1.3; Table 3, read-out: IC50 Values of Kv1.3 ion channel modulating agent)	IC50 (Kv1.3; Table 5, read-out: IC50, channel Kv1.3)	Sensitivity of Kv1.3 to the scorpion toxin (Kv1.3; text b541)
Guangxitoxin (EGECGGFWWKCGSGKPACCPKYVCSPKWGLCNFPMP) [GxTx-1E]	enhanced	No effect	~2 nM	–	–	–	–
Agitotoxin-2 (GVPINVSCTGSPQCIKPCKDAGMRFGKCMNRKCHCTPK) [AgTx2]	–	–	0.007 nM	not inhibited	4 pM	4 pM	sensitive

Reference: US10753947B2, “Methods for screening voltage-gated proteins” (D.E. Shaw Research, LLC, priority 2012, dated 2020)
